For this assay, the target named is Celsr3 (UniProt Q91ZI0). Briefly: co-immunoprecipitation, both in same cell. The following applies: reference: Fzd3 wild type; sites T598.

As for “Frizzled3 (Fzd3) (from UniProt Q61086) Fzd3 T598A”, the “binding against the reference” value was “weaker”.
